The values that follow come from publication PMC11873960, “Coupled Heterogeneity to Dimeric Site-Specific Binding by the POU-Family Transcription Factor OCT2” (The Journal of Physical Chemistry. B, 2025).

Series [1] deals with the molecule itself. Briefly: native gel or EMSA; 0.2 kbp DNA fragment with a single MORE site (10 nM) incubated overnight at 25 °C with graded OCT2 DBD (2-fold dilutions from 1 uM) in PBS; 4-20% gradient polyacrylamide gel; dimer assembled on DNA.
The target in series [2] is T1, OCT2 DBD (POU domain) (Homo sapiens, UniProt P09086 195-357).
T1 sequence: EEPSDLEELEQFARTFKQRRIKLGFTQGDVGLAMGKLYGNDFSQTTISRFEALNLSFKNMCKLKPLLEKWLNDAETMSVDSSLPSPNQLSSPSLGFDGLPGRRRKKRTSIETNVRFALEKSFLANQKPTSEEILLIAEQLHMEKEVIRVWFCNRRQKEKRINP
Briefly: fluorescence anisotropy; 0.15 M Na+, 1 U poly[d(I-C)]; FP: 5 nM probe, 10 mM Bis-Tris pH 6.5, 0.01% BSA, 0.15-0.35 M NaCl, 25 C overnight, Hill fit with nH = 2 (macroscopic KD of dimer); EMSA: 10 nM DNA, PBS, 25 C o. Particulars: protein: recombinant; tags: N-terminal His6 removed by thrombin; chain copies: 2; label: 5'-HEX; blunt; self-complementary, 2 copies of the strand.

In series [3] the target is T1, OCT2 DBD (POU domain). The series can be described thus: fluorescence anisotropy; 0.20 M Na+, no poly[d(I-C)]; FP: 5 nM probe, 10 mM Bis-Tris pH 6.5, 0.01% BSA, 0.15-0.35 M NaCl, 25 C overnight, Hill fit with nH = 2 (macroscopic KD of dimer); EMSA: 10 nM DNA, PBS, 25 C o. As to conditions: protein: recombinant; tags: N-terminal His6 removed by thrombin; chain copies: 2; label: 5'-HEX; blunt; self-complementary, 2 copies of the strand.

The target of series [4] is T1, OCT2 DBD (POU domain). Briefly: fluorescence anisotropy; 0.20 M Na+, 1 U poly[d(I-C)]; FP: 5 nM probe, 10 mM Bis-Tris pH 6.5, 0.01% BSA, 0.15-0.35 M NaCl, 25 C overnight, Hill fit with nH = 2 (macroscopic KD of dimer); EMSA: 10 nM DNA, PBS, 25 C o. As to conditions: protein: recombinant; tags: N-terminal His6 removed by thrombin; chain copies: 2; label: 5'-HEX; blunt; self-complementary, 2 copies of the strand.

In series [5] the target is T1, OCT2 DBD (POU domain). Briefly: fluorescence anisotropy; 0.175 M Na+, no poly[d(I-C)]; FP: 5 nM probe, 10 mM Bis-Tris pH 6.5, 0.01% BSA, 0.15-0.35 M NaCl, 25 C overnight, Hill fit with nH = 2 (macroscopic KD of dimer); EMSA: 10 nM DNA, PBS, 25 C o. Particulars: protein: recombinant; tags: N-terminal His6 removed by thrombin; chain copies: 2; label: 5'-HEX; blunt; self-complementary, 2 copies of the strand.

Series [6] has as its target T1, OCT2 DBD (POU domain). Briefly: fluorescence anisotropy; 0.25 M Na+, no poly[d(I-C)]; FP: 5 nM probe, 10 mM Bis-Tris pH 6.5, 0.01% BSA, 0.15-0.35 M NaCl, 25 C overnight, Hill fit with nH = 2 (macroscopic KD of dimer); EMSA: 10 nM DNA, PBS, 25 C o. As to conditions: protein: recombinant; tags: N-terminal His6 removed by thrombin; chain copies: 2; label: 5'-HEX; blunt; self-complementary, 2 copies of the strand.

Series [7] has as its target T1, OCT2 DBD (POU domain). Briefly: fluorescence anisotropy; 0.35 M Na+, no poly[d(I-C)]; FP: 5 nM probe, 10 mM Bis-Tris pH 6.5, 0.01% BSA, 0.15-0.35 M NaCl, 25 C overnight, Hill fit with nH = 2 (macroscopic KD of dimer); EMSA: 10 nM DNA, PBS, 25 C o. Particulars: protein: recombinant; tags: N-terminal His6 removed by thrombin; chain copies: 2; label: 5'-HEX; blunt; self-complementary, 2 copies of the strand.

In series [8] the target is T1, OCT2 DBD (POU domain). Briefly: fluorescence anisotropy; 0.15 M Na+, no poly[d(I-C)]; text gives 3.2 +/- 1.4 nM; FP: 5 nM probe, 10 mM Bis-Tris pH 6.5, 0.01% BSA, 0.15-0.35 M NaCl, 25 C overnight, Hill fit with nH = 2 (macroscopic KD of dimer); EMSA: 10 nM DNA, PBS, 25 C o. As to conditions: protein: recombinant; tags: N-terminal His6 removed by thrombin; chain copies: 2; label: 5'-HEX; blunt; self-complementary, 2 copies of the strand.

For series [9], the target named is T1, OCT2 DBD (POU domain). The series can be described thus: fluorescence anisotropy; 0.25 M Na+, 1 U poly[d(I-C)]; FP: 5 nM probe, 10 mM Bis-Tris pH 6.5, 0.01% BSA, 0.15-0.35 M NaCl, 25 C overnight, Hill fit with nH = 2 (macroscopic KD of dimer); EMSA: 10 nM DNA, PBS, 25 C o. As to conditions: protein: recombinant; tags: N-terminal His6 removed by thrombin; chain copies: 2; label: 5'-HEX; blunt; self-complementary, 2 copies of the strand.

Series [10] has as its target T1, OCT2 DBD (POU domain). Briefly: fluorescence anisotropy; 0.35 M Na+, 1 U poly[d(I-C)]; text gives 0.18 +/- 0.06 uM; FP: 5 nM probe, 10 mM Bis-Tris pH 6.5, 0.01% BSA, 0.15-0.35 M NaCl, 25 C overnight, Hill fit with nH = 2 (macroscopic KD of dimer); EMSA: 10 nM DNA, PBS, 25 C o. Particulars: protein: recombinant; tags: N-terminal His6 removed by thrombin; chain copies: 2; label: 5'-HEX; blunt; self-complementary, 2 copies of the strand.

The target in series [11] is T1, OCT2 DBD (POU domain). The series can be described thus: fluorescence anisotropy; 0.175 M Na+, 1 U poly[d(I-C)]; FP: 5 nM probe, 10 mM Bis-Tris pH 6.5, 0.01% BSA, 0.15-0.35 M NaCl, 25 C overnight, Hill fit with nH = 2 (macroscopic KD of dimer); EMSA: 10 nM DNA, PBS, 25 C o. As to conditions: protein: recombinant; tags: N-terminal His6 removed by thrombin; chain copies: 2; label: 5'-HEX; blunt; self-complementary, 2 copies of the strand.

The target in series [12] is T1, OCT2 DBD (POU domain). Briefly: fluorescence anisotropy; 0.30 M Na+, 1 U poly[d(I-C)]; FP: 5 nM probe, 10 mM Bis-Tris pH 6.5, 0.01% BSA, 0.15-0.35 M NaCl, 25 C overnight, Hill fit with nH = 2 (macroscopic KD of dimer); EMSA: 10 nM DNA, PBS, 25 C o. As to conditions: protein: recombinant; tags: N-terminal His6 removed by thrombin; chain copies: 2; label: 5'-HEX; blunt; self-complementary, 2 copies of the strand.

The target in series [13] is T1, OCT2 DBD (POU domain). Briefly: fluorescence anisotropy; 0.30 M Na+, no poly[d(I-C)]; FP: 5 nM probe, 10 mM Bis-Tris pH 6.5, 0.01% BSA, 0.15-0.35 M NaCl, 25 C overnight, Hill fit with nH = 2 (macroscopic KD of dimer); EMSA: 10 nM DNA, PBS, 25 C o. As to conditions: protein: recombinant; tags: N-terminal His6 removed by thrombin; chain copies: 2; label: 5'-HEX; blunt; self-complementary, 2 copies of the strand.

B1: OCT2 DBD (DNA-binding domain, POU domain, of human POU factor OCT2) (domain or fragment, UniProt P09086 195-357, looked up)
chain: T1 sequence
notes: Cloned into NdeI/BamHI of pET15b; residues of the vector may be left at the N-terminus after thrombin cleavage (surmised); the linker is not resolved in the structure; also called POU2F2; OCT DBD; source: E. coli BL21(DE3)pLysS, purified (Ni-NTA, thrombin cleavage, Sepharose SP, Superdex 75); not shown: His6, N-terminal, cleaved
With B1, the “stoichiometry N” value in series [1] is 2.

B2: MORE 22-bp, HEX-labelled (dsDNA)
DNA 1: TCCTCATGCATATGCATGAGGA
DNA 2: TCCTCATGCATATGCATGAGGA
In the case of B2, the Kd is 5.5 ± 1.3 nM with OCT2 DBD (POU domain) [2]; 29 ± 9 nM with OCT2 DBD (POU domain) [3]; 16 ± 7 nM in the series with OCT2 DBD (POU domain) [4]; 9.7 ± 3.7 nM with OCT2 DBD (POU domain) [5]; 88 ± 18 nM with OCT2 DBD (POU domain) [6]; 1200 ± 300 nM in the series with OCT2 DBD (POU domain) [7]. For the same molecule, the Kd in the series with OCT2 DBD (POU domain) [8] amounted to 3.8 ± 1.4 nM; in the series with OCT2 DBD (POU domain) [9], 41 ± 13 nM; with OCT2 DBD (POU domain) [10] it was 190 ± 60 nM; with OCT2 DBD (POU domain) [11], 11 ± 4 nM; with OCT2 DBD (POU domain) [12], 71 ± 19 nM; with OCT2 DBD (POU domain) [13], 560 ± 100 nM.
